# System: K4 kissing-loop RNA reporter
# Experiment: apparent KD of K4 kissing-loop reporter; higher = weaker reporter binding
# Conditions: Eterna round: R107; input ligand: FMN 200 uM
# Method: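 RNA-MaP round R107: designed RNA switches with theophylline, tryptophan, arginine or FMN aptamers are transcribed on-chip within common flanks. They are titrated with a labelled K4 kissing-loop RNA reporter in RNA-MaP buffer (100 mM Tris pH 7.5, 80 mM KCl, 4 mM MgCl2), without ligand or with the indicated ligand. Median apparent KD per design.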
# 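Also: bound reporter read as fluorescence of individual clusters on recovered sequencing chips by microscopy, with normalized cluster intensities fitted with a binding model.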
row,Sequence,apparent KD of K4 kissing-loop reporter [nM]
1,UUUAUAAAGUCGGCCGCCACUGGAUUUAUAUUUGUUUCGUCUGGAUCAAAGUGAUGUUUUGAGUCCAGGACCGGGACAUUUGUUA [whbob_Ex_Tryp_B_w37],80.7
2,AUAGGAGUGAUGUUCCUUAGUCCCUCCGAUACCAGUAUGGAAACAUACCCUUGGCAGCGGUGGACCGCAGAUUAGGAAACUAGUC [Theophylline A K4 4],232
3,GGCGGCCGCGCGCAAGCGCGGCCGGCCGAUACCAGCGCGCCGGCGCGCCCUUGGCAGCGGCGCCGAGUGAUGUUCGGCCUGCCGG [#2 Same State - Theophylline A Attempt #9 (HarryS)],477
4,CGCAGUGAUGUUGCUAUUAUUCUUGGUUAACGAGGACCGGUACGGCCGCCACUCGAUUUCUAUCUAGUCCAGUGUUUUUUUGAGU [whbob_EX_Tryp_A_t7],347
5,AAGCCCAGUGAUGUUGGAAGCGCGUACGAUACCAGCGAAUCGGAACGCCCUUGGCAGCGUACAGAGUUGGCGGAAGAUAGGACAG [theeternabot_sameState_KL_Theo_A_14],548
6,UCAGUUCACGGGCGCCGCAAACCGCAGGAUACCAGUCACAUCGCUGACCCUUGGCAGCCUAUGGACUAGUGAUGUUAGUCCAGGA [theeternabot_sameState_KL_Theo_A_37],98.5
7,UGAUAGGACAGAAGGAGCGGAAGUGAUGUUUCCAAUGGAAUUAAGGUGUCAAAGACACCCUUCCAGGUAGGUCGCUGUCCUAUCU [ArgBX 18 #Palindromic #SwitchBubble #StaticStem],156
8,AUGGGUCCACGAAGGAGCGCCGUGGAGUGAUGUUCCGGUUAGAUCCAGUGAUGUUGGGCCCGGCAGGUAGGUCGCGUGGACUCAU [Exclusion Arginine B GF 23],720
9,UCUAUAGUUAGAGGAUAUUGAAUUAGAGUGAUGUUCUAUAGAAGACCAGUGAUGUUGGAUAGUAUACAAGAAGGCUGAUCUAUAG [Same State FMN B GF 1],208
10,AAUGUUAGCAAAGGAUAUCUGAUGAGUGAUGUUUACGGACCGUUUGCGUUUCAUUACACGCAGCUCAGAGAAGGUUGGUGUGCAG [theeternabot_exclusion_KL_FMN_B_49],1230
11,UGUCAUUGGUCUGAUACCAGAAGAAAUCUGGAGUGAUGUUCCGAGUACGACAAAAGUCGCUUCCCUUGGCAGCAGACCGAUGACU [TheoBS 22 #SwitchBubble 13 #StaticStem],235
12,GGAUAGGACAGAGGAUAUCUCUGAGGCAAGAAAACUUGUCUCUAAAGGGAUGACUCAGUGAUGUUGAGAGAAGGCUGUCCUAUCG [FmnBX 11 - #SwitchBubble #StaticStem],295
13,UUGGGCGAGGUAACGUGGAUAUCUCGUCGCAAGGAUAUCUGGAAACAGAGAAGGUGCUACAUUACCGGCAGUGAUGUUGCUGACC,418
14,UACUCUCCUCCUGAUACCAGAUAAAUAUUAAUACAUUAGUGAUGUUAAUGCCCAAACCCGAUCCCUUGGCAGCAGAAUAUGCAGG [theeternabot_sameState_KL_Theo_B_25],152
15,AUUUUAGAGUGAUGUUCUAUUUGAUCAGAUACCAGACAAUUAUAAGUCCCUUGGCAGCUGUAGCCGAUAAAUUUAAUUAAUUUAA [JR_ExcTheophyA_Sub012],132
16,UAGUCCUCUUCUUAUUUAUUCCCUAAUGCUAAGGAUAUCCGAAUUCGGAGAAGGUAGUGAUGUUACUUGAAGGGACAUAUUUAUU [AK6 Exc FMN A],412

# Same assay, conditions: Eterna round: R107; input ligand: arginine 13.2 mM
row,Sequence,apparent KD of K4 kissing-loop reporter [nM]
1,AGUGAUGUGGGAAGGAGCGCUACAAGACUUCAGUGAUGUUGAAGUGAUGUUUUAGUGUUGUAGCAGGUAGGUCGCCUAGAUGUUA [KL-XARG-B10],31.9
2,GUAGUCGUACCUUCAGUGAUGUUGAAGGAUACCAGAUGUUACCACAUCCCUUGGCAGCCUUGGGAUAACAGUGAGUUGGAAUAUG [Soonusa],127
3,GGAUCCACCAGUGAUGUUGGAGAAAACUUCAAGGAUAUGACGAAAGUCAGAAGGUGGUAGACUGGACAAAGUCCGGUAGGAUCCA [FmnA10 U29+A78],395
4,GCGCGUCAUGUCAGCGGUGACUAUGUCGAUACCAGCGCCGCAAGGCGCCCUUGGCAGCGACGCGCUGGAGUGAUGUUCCAGCGUG [#2 Exclusion - Theophylline A Attempt #10 (HarryS)],118
5,GGGCGCGGCGCGGCCGCCACUGGGCCUGGGCGCUCGCUGAGUGAUGUUCGCCGGCGGCUGGGUCGUAGGACCGGGUGCCGGCUGG [BDazzled - #3 SS Tryptophan B],490
6,AAGUUGAACUGAAGGAGCGAGAAAUAGAAUGUAAGAAUAUAUGCUAGUGAUGUUAGAAAUUCUCAGGUAGGUCGCAGUAAGAUUU [V1.1],328
7,ACAGUCCCGCAUGGUGCGAACGAGAGAUGGCGAGGACCGGUACGGCCGCCACUCGAACAAGUGAUGUUUGAUAUCAUUUUUCUAC [theeternabot_sameState_KL_Trp_A_10],83.3
8,UAAGAGGACCACUGCGAGAGUCCUCGAAUACGAGGACCGGUACGGCCGCCACUCGAUAACUUGCAGUGAUGUUGCAAGUAAGAAU [BrourdMod 3 - Jieux - Same State Tryptophan A],95.4
9,CUGUUGUAGACUGAUACCAGUCUCACAGCAGAUGUGUGGGACUUAGUGAUGUUAAGUACCGACCCUUGGCAGCAGUCUACGACCU [Theo B SS t6],374
10,GUAGUGAUGUUACGAGUAUUCCAUCGUAGAGAGGAUAUGGUUCCUUCCAGAAGGUUCUGAGAAUUAAAAUUUGAUAAAAUGAGGG [Exclusion FMN A GF 2],251

# From the supplement of paper PMC9170038
